Measurements reported in patent publication US20230049152A1 (Genentech, published 2023).

T1: human CCR3 (human, UniProt P51677 1-355)
T1 construct: whole, on cells; transiently expressed on HEK293 cells
T1 sequence (looked up): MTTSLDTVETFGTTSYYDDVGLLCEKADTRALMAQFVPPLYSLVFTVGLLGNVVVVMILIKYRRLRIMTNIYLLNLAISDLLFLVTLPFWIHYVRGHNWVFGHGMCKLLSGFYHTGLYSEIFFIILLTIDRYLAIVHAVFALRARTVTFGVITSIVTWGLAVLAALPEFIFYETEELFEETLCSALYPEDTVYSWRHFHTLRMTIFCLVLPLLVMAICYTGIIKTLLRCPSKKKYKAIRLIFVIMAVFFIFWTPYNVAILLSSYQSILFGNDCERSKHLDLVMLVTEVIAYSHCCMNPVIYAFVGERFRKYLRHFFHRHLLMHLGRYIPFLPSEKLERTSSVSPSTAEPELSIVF

T2: human ACKR2 (human, UniProt O00590 1-384)
T2 construct: whole, on cells; transiently expressed on HEK293 cells
T2 sequence (looked up): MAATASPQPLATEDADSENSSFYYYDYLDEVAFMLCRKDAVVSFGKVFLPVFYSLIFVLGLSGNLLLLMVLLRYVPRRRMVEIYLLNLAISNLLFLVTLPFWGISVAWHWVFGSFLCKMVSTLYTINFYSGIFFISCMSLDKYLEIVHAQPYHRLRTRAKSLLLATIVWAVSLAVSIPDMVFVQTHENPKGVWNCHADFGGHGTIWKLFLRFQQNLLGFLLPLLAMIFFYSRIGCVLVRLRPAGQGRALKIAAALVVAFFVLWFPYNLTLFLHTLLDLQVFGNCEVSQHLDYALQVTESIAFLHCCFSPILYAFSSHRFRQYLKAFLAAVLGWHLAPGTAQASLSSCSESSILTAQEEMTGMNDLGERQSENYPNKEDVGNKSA

B1: hu.Ab5.H1L1 (antibody, human IgG1, kappa)
heavy: not shown
light: DIQVTQSPSSLSASVGDRVTITCQASENIANALAWYQQKPGKPPKFLIYGASNLASGVPSRFSGSGSGTDFTFTISSLQPEDIATYYCQQAYYGNSFVEGTFGGGTKVEIKRTVAAPSVFIFPPSDEQLKSGTASVVCLLNNFYPREAKVQWKVDNALQSGNSQESVTEQDSKDSTYSLSSTLTLSKADYEKHKVYACEVTHQGLSSPVTKSFNRGEC
B2: hu.Ab5.H13L1 (antibody, human IgG1, kappa)
heavy: not shown
light: DIQVTQSPSSLSASVGDRVTITCQASENIANALAWYQQKPGKPPKFLIYGASNLASGVPSRFSGSGSGTDFTFTISSLQPEDIATYYCQQAYYGNSFVEGTFGGGTKVEIKRTVAAPSVFIFPPSDEQLKSGTASVVCLLNNFYPREAKVQWKVDNALQSGNSQESVTEQDSKDSTYSLSSTLTLSKADYEKHKVYACEVTHQGLSSPVTKSFNRGEC
notes: fucosylated human IgG1; also called Ab5 variant
B3: hu.Ab4.H1L1 (antibody, human IgG1, kappa)
heavy: not shown
light: DYQMTQSPSSLSASVGDRVTITCQASQSISSYLSWYQQKPGKRPKLLIYKASTLASGVPSRFSGSGSGTDFTLTISSLQPEDFATYYCQQGYTSSNIDNIFGGGTKVEIKRTVAAPSVFIFPPSDEQLKSGTASVVCLLNNFYPREAKVQWKVDNALQSGNSQESVTEQDSKDSTYSLSSTLTLSKADYEKHKVYACEVTHQGLSSPVTKSFNRGEC
notes: also called hu.Ab4.H1Ll

Experiments:
[1] = biological target: T3, cyno CCR8 (cynomolgus monkey, UniProt O97665 1-356 (rhesus entry)); test: flow cytometry on human and cyno CCR8 CHO cells
T3 construct: also called cynomolgus monkey CCR8
T3 sequence (O97665 other isoform, or with tags, fused parts or gaps): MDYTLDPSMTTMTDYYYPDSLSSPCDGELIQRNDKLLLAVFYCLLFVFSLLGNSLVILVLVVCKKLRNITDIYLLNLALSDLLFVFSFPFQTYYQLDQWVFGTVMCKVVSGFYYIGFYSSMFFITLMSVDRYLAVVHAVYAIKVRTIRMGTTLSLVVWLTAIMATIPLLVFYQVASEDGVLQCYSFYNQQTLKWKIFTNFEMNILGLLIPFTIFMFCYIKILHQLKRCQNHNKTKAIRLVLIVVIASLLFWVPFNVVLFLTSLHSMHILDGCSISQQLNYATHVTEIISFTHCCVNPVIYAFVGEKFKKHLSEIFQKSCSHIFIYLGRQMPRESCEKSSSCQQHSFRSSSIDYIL

[2] = biological target: T4, human CCR8 (human, UniProt P51685 1-355); test: flow cytometry, 2 ug/mL mAb, Treg cells of human colorectal dissociated tumor cells
T4 construct: the assay field says which; also called hCCR8; huCCR8
Method: The mAbs were evaluated for binding to regulatory T cells (Treg cells or Tregs) by Fluorescence-Activated Cell Sorting (FACS) flow cytometry. Human colorectal dissociated tumor cells (DTC) (Discovery Life Sciences) were thawed according to vendor's protocol. Cells were surface stained with eFluor 780-conjugated Fixable Viability Dye (ThermoFisher Scientific) and 2 ug/mL mAb specific for CCR8, OX40 (positive control), Herceptin (negative control), or anti-hIgG (negative control) for 20 min at 4° C. followed by secondary detection with AF647-conjugated AffiniPure F(ab′)2 Fragment Goat anti-Human IgG, Fcg fragment-specific (Jackson ImmunoResearch) for 10 min at 4° C. Cells were then intracellularly stained using the eBioscience Foxp3/Transcription Factor Staining Buffer Set (ThermoFisher Scientific) according to the manufacturer's protocol. […] Shown in FIG. 1 are mean fluorescent intensity (MFI) values for CD8 T cells (defined as CD45+CD14−CD3+CD8+CD4−) (circles, ◯), conventional CD4 T cells (defined as CD45+CD14−CD3+CD8−CD4+FOXP3−) (squares, □), and Treg cells (defined as CD45+CD14−CD3+CD8−CD4+FOXP3+) (triangles, ▴). Three of the five CCR8 mAb clones specifically stained Treg cells and not conventional CD4 or CD8 T cells and were ranked according to CCR8 MFI, greater than 500 MFI: hu.Ab4.H1L1>hu.Ab5.H1L1>hu.Ab3.H1L1. Upon confirmation that these three CCR8 mAb clones, namely, hu.Ab3.H1L1, hu.Ab4.H1L1, and hu.Ab5.H1L1, also retained human-cyno cross-reactivity (differences less than 5-fold on human and cyno CCR8 CHO cells), these antibodies carried forward for further exploration.

[3] = biological target: T1, human CCR3; test: flow cytometry, HEK293 with N-term FLAG-tagged human CCR3
Text: (§1) FIGS. 4A-4F depicts the binding data of hu.Ab3.H1L1 (FIG. 4A), hu.Ab4.H1L1 (FIG. 4B), and hu.Ab5.H1L1 (FIG. 4C), as well as the commercial anti-CCR8 mAbs murine anti-human CCR8 mAb 433H (BD Biosciences) (FIG. 4D), and murine anti-human CCR8 mAb L263G8 (Biolegend) (FIG. 4E), and the humanized anti-human Yoshida anti-CCR8 mAb (FIG. 4F), to HEK293 cells that were transiently transfected with N-term FLAG-tagged plasmids encoding for human GPCRs (CCR2, CCR3, CCR4, CCR5, CCR8, CXCR4, ACKR2, and ACKR4), hCCR8 constructs, or with a mock construct using transIT X2 (reagent:DNA=3:1).
(§2) To confirm the selectivity to CCR8, the binding of hu.Ab3.H1L1, hu.Ab4.H1L1, and hu.Ab5.H1L1, as well as the Yoshida humanized anti-human CCR8, murine anti-human CCR8 mAb L263G8 (Biolegend, Commercial Ab) and murine anti-human CCR8 mAb 433H (BD Biosciences, Commercial Ab), were characterized by flow cytometry on HEK293 cells that were transiently transfected with plasmids encoding for FLAG-tagged other related human GPCRs (CCR2-5, CXCR4, ACKR2, and ACKR4). Cell surface expression of each GPCR was confirmed by staining with an anti-FLAG antibody control. […]

[4] = biological target: T2, human ACKR2; test: flow cytometry, HEK293 with N-term FLAG-tagged human ACKR2
Text: as §1, §2

[5] = biological target: T5, CCR8 with C-terminal FLAG; test: flow cytometry, HEK293 transfected with CCR8 with C-terminal FLAG
T5 construct: expressed on transfected HEK293 cells; also called hCCR8 with a C-terminal FLAG tag

Binder | binding result [1] | MFI [2] | binding result [3] | binding result [4] | binding result [5]
B1 | binds | > 500 MFI | no binding (tested: 5 ug/ml) | no binding (tested: 5 ug/ml) | –
B2 | – | – | – | – | binds
B3 | binds | > 500 MFI | no binding (tested: 5 ug/ml) | no binding (tested: 5 ug/ml) | –
